Test [1] has as its target T1, VN:SPT (SPATULA fused to the N-terminal fragment of Venus YFP) (Arabidopsis thaliana, UniProt Q9FUA4 1-373).
T1 construct: SPATULA (SPT), bHLH transcription factor of Arabidopsis thaliana, AT4G36930; source: Arabidopsis Col-0 mesophyll protoplasts, transfected (PEG-Ca), in cells; not shown: Venus YFP N-terminal fragment (residues 1-154)
T1 sequence (looked up): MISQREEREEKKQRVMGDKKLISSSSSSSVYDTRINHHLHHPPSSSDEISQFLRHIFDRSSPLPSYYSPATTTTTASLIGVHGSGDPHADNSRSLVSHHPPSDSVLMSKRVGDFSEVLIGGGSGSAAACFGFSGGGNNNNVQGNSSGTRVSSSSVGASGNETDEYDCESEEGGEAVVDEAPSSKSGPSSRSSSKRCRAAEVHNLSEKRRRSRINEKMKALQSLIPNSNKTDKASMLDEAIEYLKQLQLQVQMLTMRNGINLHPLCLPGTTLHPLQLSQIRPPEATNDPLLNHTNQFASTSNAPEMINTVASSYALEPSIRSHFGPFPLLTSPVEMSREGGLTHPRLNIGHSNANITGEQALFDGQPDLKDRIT
As to the kind of experiment: split reporter (BiFC, NanoBiT); BiFC with split Venus YFP (VN 1-154, VC 155-238) in Arabidopsis Col-0 mesophyll protoplasts, PEG-Ca transfection, 35S promoter, read 16 h after transfection by confocal microscopy; frequency = YFP-positive protoplasts/total protoplasts x 100, four images of about 200 protoplasts each. The following applies: partners not purified.

In the test “VN:SPT-4A (SPATULA …)” the target is T2, VN:SPT-4A (SPATULA V176A-V177A-D178A-E179A fused to the N-terminal fragment of Venus YFP) (Arabidopsis thaliana, UniProt Q9FUA4 1-373, V176A | V177A | D178A | E179A).
T2 construct: SPATULA (SPT), Arabidopsis thaliana, AT4G36930; source: Arabidopsis Col-0 mesophyll protoplasts, transfected (PEG-Ca), in cells; not shown: Venus YFP N-terminal fragment (residues 1-154)
T2 sequence (looked up): T1 sequence (looked up) with V176A, V177A, D178A, E179A
The description is as above. To be noted: partners not purified.

Substitutions are numbered along the chain they refer to. In names and notes the source's numbering stands.

B1: VC:HEC1 (HECATE1 fused to the C-terminal fragment of Venus YFP) (natural protein, Arabidopsis thaliana, UniProt Q9FHA7 1-241, looked up)
chain: MDSDIMNMMMHQMEKLPEFCNPNSSFFSPDHNNTYPFLFNSTHYQSDHSMTNEPGFRYGSGLLTNPSSISPNTAYSSVFLDKRNNSNNNNNGTNMAAMREMIFRIAVMQPIHIDPEAVKPPKRRNVRISKDPQSVAARHRRERISERIRILQRLVPGGTKMDTASMLDEAIHYVKFLKKQVQSLEEQAVVTGGGGGGGGRVLIGGGGMTAASGGGGGGGVVMKGCGTVGTHQMVGNAQILR
notes: HECATE1 (HEC1), bHLH transcription factor of Arabidopsis thaliana, AT5G67060; source: Arabidopsis Col-0 mesophyll protoplasts, transfected (PEG-Ca), in cells; not shown: Venus YFP C-terminal fragment (residues 155-238)
Turning to B1, in test [1], the “average interaction frequency (percent of protoplasts with YFP signal)” value was 34.2%.

B2: VC:IND (INDEHISCENT fused to the C-terminal fragment of Venus YFP) (natural protein, Arabidopsis thaliana, UniProt O81313 1-198, looked up)
chain: MENGMYKKKGVCDSCVSSKSRSNHSPKRSMMEPQPHHLLMDWNKANDLLTQEHAAFLNDPHHLMLDPPPETLIHLDEDEEYDEDMDAMKEMQYMIAVMQPVDIDPATVPKPNRRNVRISDDPQTVVARRRRERISEKIRILKRIVPGGAKMDTASMLDEAIRYTKFLKRQVRILQPHSQIGAPMANPSYLCYYHNSQP
notes: INDEHISCENT (IND), bHLH transcription factor of Arabidopsis thaliana, AT4G00120; source: Arabidopsis Col-0 mesophyll protoplasts, transfected (PEG-Ca), in cells; not shown: Venus YFP C-terminal fragment (residues 155-238)
Turning to B2, the “average interaction frequency (percent of protoplasts with YFP signal)” value in the test with VN:SPT-4A (SPATULA …) amounted to 13.5%.

B3: VC:IND-3A (INDEHISCENT N112A-R113A-R114A fused to the C-terminal fragment of Venus YFP) (natural protein, Arabidopsis thaliana, UniProt O81313 1-198, looked up)
chain: B2 chain with N112A, R113A, R114A
notes: INDEHISCENT (IND), Arabidopsis thaliana, AT4G00120; the methods list only VC:IND-3A; source: Arabidopsis Col-0 mesophyll protoplasts, transfected (PEG-Ca), in cells; not shown: Venus YFP C-terminal fragment (residues 155-238)
B3: the “average interaction frequency (percent of protoplasts with YFP signal)” value was 14.9% with VN:SPT-4A (SPATULA …) and 13% in test [1].

Values taken from paper PMC12196928, “Site-Directed Mutagenesis Mediated by Molecular Modeling and Docking and Its Effect on the Protein–Protein Interactions of the bHLH Transcription Factors SPATULA, HECATE1, and INDEHISCENT” (Plants, 2025).
